This is an account of results in patent US20240285759A1 (published 2024).

Common to all, as to experiment: cytokine release
The target in assay [1] is T1, NRAS wild type (RAS wild type) peptide on HLA-A*01:01 (human).
T1 peptide: ILDTAGQEEY

The target in assay [2] is T2, NRAS Q61K (RAS Q61K; the filing also names KRAS and HRAS comprising this peptide) peptide on HLA-A*01:01 (human).
T2 peptide: ILDTAGKEEY

Assay [3] deals with T3, NRAS Q61R (RAS Q61R; the filing also names KRAS and HRAS comprising this peptide) peptide on HLA-A*01:01 (human).
T3 peptide: ILDTAGREEY

B1: TCR1 (TCR, V domains shown)
Valpha: GQQLNQSPQSMFIQEGEDVSMNCTSSSIFNTWLWYKQEPGEGPVLLIALYKAGELTSNGRLTAQFGITRKDSFLNISASIPSDVGIYFCAGRDDAGNMLTFGGGTRLMVKP
Vbeta: GAVVSQHPSRVICKSGTSVKIECRSLDFQATTMFWYRQFPKKSLMLMATSNEGSKATYEQGVEKDKFLINHASLTLSTLTVTSAHPEDSSFYICSASVRMNTEAFFGQGTRLTVV
With B1, the binding result is “no recognition” in assay [1], “recognises” in assay [2] and “recognises” in assay [3].

B2: TCR2 (TCR, V domains shown)
Valpha: GESVGLHLPTLSVQEGDNSIINCAYSNSASDYFIWYKQESGKGPQFIIDIRSNMDKRQGQRVTVLLNKTVKHLSLQIAATQPGDSAVYFCAENIRLTGANNLFFGTGTRLTVIP
Vbeta: GAVVSQHPSWVICKSGTSVKIECRSLDFQATTMFWYRQFPKQSLMLMATSNEGSKATYEQGVEKDKFLINHASLTLSTLTVTSAHPEDSSFYICSARLLSYEQYFGPGTRLTVT
For B2, the binding result in assay [1] is “no recognition”; in assay [3], “recognises”.
